From paper PMC5678893 come the findings set out here.

Test [1] concerns the target all active complexes of the different constructs assembled with vesicles, PEG, or Ni(II). As to the kind of experiment: co-sedimentation.
For test [2], the target named is His-tagged cytoplasmic fragment (CF) of the E. coli aspartate chemoreceptor, 4Q (E. coli). As to the kind of experiment: co-sedimentation.

Bounds are passed on as bounds.

B1: CheW (natural protein)
chain: MTGMTNVTKLASEPSGQEFLVFTLGDEEYGIDILKVQEIRGYDQVTRIANTPAFIKGVTNLRGVIVPIVDLRIKFSQVDVDYNDNTVVIVLNLGQRVVGIVVDGVSDVLSLTAEQIRPAPEFAVTLSTEYLTGLGALGDRMLILVNIEKLLNSEEMALLDSAASEVA
Take B1: in test [1], the stoichiometry N (CheW per 6 CF) lay in the range of 2.1 to 3. Besides, in test [2], the percent bound is below 15%; the sedimentation relative to the optimal NiCl2 sample was found to be 50%; the sedimented (bound) concentration, maximum at 4 h is 13.6 µM.

B2: CheA (enzyme)
chain: MSMDISDFYQTFFDEADELLADMEQHLLVLQPEAPDAEQLNAIFRAAHSIKGGAGTFGFSVLQETTHLMENLLDEARRGEMQLNTDIINLFLETKDIMQEQLDAYKQSQEPDAASFDYICQALRQLALEAKGETPSAVTRLSVVAKSEPQDEQSRSQSPRRIILSRLKAGEVDLLEEELGHLTTLTDVVKGADSLSAILPGDIAEDDITAVLCFVIEADQITFETVEVSPKISTPPVLKLAAEQAPTGRVEREKTTRSNESTSIRVAVEKVDQLINLVGELVITQSMLAQRSSELDPVNHGDLITSMGQLQRNARDLQESVMSIRMMPMEYVFSRYPRLVRDLAGKLGKQVELTLVGSSTELDKSLIERIIDPLTHLVRNSLDHGIELPEKRLAAGKNSVGNLILSAEHQGGNICIEVTDDGAGLNRERILAKAASQGLTVSENMSDDEVAMLIFAPGFSTAEQVTDVSGRGVGMDVVKRNIQKMGGHVEIQSKQGTGTTIRILLPLTLAILDGMSVRVADEVFILPLNAVMESLQPREADLHPLAGGERVLEVRGEYLPIVELWKVFNVAGAKTEATQGIVVILQSGGRRYALLVDQLIGQHQVVVKNLESNYRKVPGISAATILGDGSVALIVDVSALQAINREQRMANTAA
In test [2], B2 showed a percent bound below 15%; a sedimentation relative to the optimal NiCl2 sample of 50%; a sedimented (bound) concentration, maximum at 4 h of 5.8 µM.
